Results published in US10052364B2, “Osteocalcin as a treatment for cognitive disorders” (THE TRUSTEES OF COLUMBIA UNIVERSITY IN THE CITY OF NEW YORK, priority 2013, dated 2018).

Columns and labels:
[1] = test system: WT mice; test: Contextual Fear Conditioning after acute hippocampal injection; assay type: in vivo, mouse; details: for freezing behavior compared to controls, 24 hours after the initial shocks: 10 ng injected acutely in both hemispheres, n=4 per group
Procedure: FIG. 11. CREB activation by osteocalcin is functionally relevant. Contextual fear conditioning in 3.5 month old mice injected acutely with 10 ng recombinant uncarboxylated osteocalcin 24 hours prior to context exposure. 3 shocks of 0.55 mA were delivered to mice 1 min apart.
To determine whether these acute injections and corresponding activation of the CREB pathway are functionally relevant, Contextual Fear Conditioning (CFC), a hippocampus dependent task that assesses long term memory, was performed. Mice were injected acutely in both hemispheres with either PBS or 10 ng recombinant uncarboxylated osteocalcin.

[2] = test system: brainstem and midbrain explants from WT and Gprc6a-/- mice; test: Gene expression (qPCR) in brainstem and midbrain explants; assay type: cell-based, mouse
Procedure: (§1) For gene expression studies, RNA was isolated from primary neurons or tissue using TRIZOL® (Invitrogen). cDNA synthesis was performed following a standard protocol from Invitrogen and qPCR analyses were done using specific quantitative PCR primers from SABiosciences (www.sabiosciences.com/RT2PCR.php).
Brains were dissected and incubated for 30 minutes in ice cold oxygenated artificial cerebrospinal fluid (ACSF). Brains were then sliced at 500 μm at the midbrain, −1.55 to −2.35 mm from the bregma, and at the level of the brainstem, from −4.04 to −4.48 mm and from −4.60 to −5.20 mm from the bregma, to include the median and dorsal raphe, respectively. These slices were incubated in ACSF for 1 h, constantly oxygenated (95% 02 and 5% CO2) for 4 h, after which they were treated with either osteocalcin (10 ng/ml) or PBS for four hours. Expression of Tph2, TH, GAD1, GAD2, and Ddc was measured by qPCR.
To determine if osteocalcin acts directly on neurons to modulate neurotransmitter synthesis, several types of assays were performed. First, brainstem and midbrain explants from WT and Gprc6a^−/− mice were generated. Brains were sliced (500 μm) at the level of the median and dorsal raphe of the brainstem (from −4.04 to −4.48 mm and from −4.60 to −5.20 mm, respectively), so that they would be enriched in serotonin-producing neurons, as well as at the level of substantia nigrae and ventral tegmental areas (VTA) of the midbrain (from −1.55 to −2.35 mm and from −2.55 to −3.25 mm, respectively). Enrichment in serotoninergic and catecholaminergic neurons in these explants was verified by their high Tph2 and Th expression. While leptin, used here as a positive control, reduced, as it should, Tph2 expression in WT or Gprc6a^−/− brainstem explants, osteocalcin (3 ng/ml) increased expression of this gene 2.5 fold in both WT and Gprc6a^−/− explants. (FIG. 3D). Additionally, osteocalcin increased Th expression in midbrain explants and decreased Gad1 expression in both WT and in Gprc6a^−/− hindbrain explants (FIG. 3D). Second, the cultured WT and Gprc6a^−/− mouse primary hindbrain neurons (MPHN) were treated with osteocalcin (3 ng/ml). […] Third, to further confirm that osteocalcin signals in neurons of the hindbrain, calcium flux in MPHN treated with undercarboxylated or carboxylated osteocalcin (FIG. 3F) was measured. […] Moreover, osteocalcin inhibits the action potential frequency of the GABAergic interneurons of the hindbrain (FIG. 3H).

[3] = test system: mouse primary hindbrain neurons (MPHN); test: Gene expression in cultured mouse primary hindbrain neurons; assay type: cell-based; details: osteocalcin 3 ng/ml, 2 or 4 hours, WT and Gprc6a-/-
Procedure: as §1
For primary culture of hindbrain neurons, E14.5 embryos were obtained from matings of 129-Sv WT mice. Hindbrains were dissected out and collected in ice-cold filter sterilized HBSS buffered with 10 mM HEPES until dissection was complete, at which point they were finely chopped into 2 mm cubes, dissociated by trituration with a fire-polished Pasteur pipette and spun down at 4° C. Cells were then plated onto poly-D-lysine coated coverslips or dishes in Neurobasal medium supplemented with 2% B27, 0.25 mM Glutamax, 0.25 mM L-glutamine, penicillin G (50 U/ml), and streptomycin sulphate ([…]). Cultures were fed every 3-6 days with one half replacement medium without L-glutamine.
To determine if osteocalcin acts directly on neurons to modulate neurotransmitter synthesis, several types of assays were performed. First, brainstem and midbrain explants from WT and Gprc6a^−/− mice were generated. […] Third, to further confirm that osteocalcin signals in neurons of the hindbrain, calcium flux in MPHN treated with undercarboxylated or carboxylated osteocalcin (FIG. 3F) was measured. […]

[4] = test system: brainstem neurons, neurons of the locus coeruleus, GABAergic interneurons of the hindbrain; test: Electrophysiology, whole cell current clamp recording in brain slices; assay type: cell-based, mouse
Procedure: Brain slice preparations and electrophysiological recordings were performed according to methods known in the art. Briefly, WT mice were anesthetized with ether and then decapitated. The brains were rapidly removed and immersed in an oxygenated bath solution at […] containing (in mM): sucrose 220, KCl 2.5, CaCl2 1, MgCl2 6, NaH2PO4 1.25, NaHCO3 26, and glucose 10 pH 7.3 with NaOH. Coronal slices (350 μm thick) containing dorsal raphe (DR) were cut on a vibratome and maintained in a holding chamber with artificial cerebrospinal fluid (ACSF) (bubbled with 5% CO2 and 95% O2) containing (in mM): NaCl 124, KCl 3, CaCl2 2, MgCl2 2, NaH2PO4 1.23, NaHCO3 26, glucose 10, pH 7.4 with NaOH, and were transferred to a recording chamber constantly perfused with bath solution (330 C) at 2 ml/min after at least a 1 hr recovery. Whole-cell current clamp was performed to observe action potentials in DR serotoninergic (5-HT) neurons with a Multiclamp 700A amplifier (Axon instrument, CA). Patch pipettes with a tip resistance of 4-6 MS2 were made of borosilicate glass (World Precision Instruments) with a Sutter pipette puller (P-97) and filled with a pipette solution containing (in mM): K-gluconate (or Cs-gluconate) 135, MgCl2 2, HEPES 10, EGTA 1.1, Mg-ATP 2, Na2-phosphocreatine 10, and Na2-GTP 0.3, pH 7.3 with KOH. After a giga-Ohm (GΩ) seal and whole-cell access were achieved, the series resistance (between 20 and 40 MΩ) was partially compensated by the amplifier. […] Electrophysiological data were analyzed with Axograph 4.9 and plotted with Igor Pro software (WaveMetrics, Lake Oswego, Oreg.).
To determine if osteocalcin acts directly on neurons to modulate neurotransmitter synthesis, several types of assays were performed. […] Third, to further confirm that osteocalcin signals in neurons of the hindbrain, calcium flux in MPHN treated with undercarboxylated or carboxylated osteocalcin (FIG. 3F) was measured. […]

B1: uncarboxylated osteocalcin: Recombinant osteocalcin bacterially produced, cleaved from the GST subunit; completely undercarboxylated at all three sites (protein, listed as Homo sapiens)
chain: MRALTLLALLALAALCIAGQAGAKPSGAESSKGAAFVSKQEGSEVVKRPRRYLYQWLGAPVPYPDPLEPRREVCELNPDCDELADHIGFQEAYRRFYGPV
modifications: uncarboxylated
notes: Recombinant osteocalcin bacterially produced, cleaved from the GST subunit; completely undercarboxylated at all three sites
[1]; 10 ng injected 24 hours prior to context exposure, 3.5 month old mice
  % freezing on Day 1: the same for both groups
[1]
  freezing behavior compared to controls, 24 hours after the initial shocks: increased freezing behavior
[1]; listed as recombinant uncarboxylated osteocalcin
  freezing behavior compared to controls, 24 hours after the initial shocks: increased freezing along with hyperexcitability
[2]; osteocalcin 3 ng/ml, WT and Gprc6a-/- explants
  Tph2 expression in brainstem explants: 2.5 fold
[2]; osteocalcin, WT and Gprc6a-/- hindbrain explants
  Gad1 expression in hindbrain explants: decreased
[2]; osteocalcin, midbrain explants
  Th expression in midbrain explants: increased
[3]
  GA' expression decrease in primary brainstem neuronal culture: 65%
  Tph2 expression in primary brainstem neuronal culture: increased more than three-fold
[4]
  action potential frequency of the GABAergic interneurons of the hindbrain: inhibits
[4]; whole cell current clamp
  action potential frequency in neurons of the locus coeruleus: decreases
  action potential frequency of brainstem neurons: activates
